# Measured values reported in the nanobody polyreactivity screen of Harvey et al. (2022).
# Assay: yeast display, Sf9 membrane polyspecificity reagent, FACS + sequencing; frameworks hold sequencing errors
# Outline: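 Polyreactivity labels are assigned by the sorting gate from which each nanobody was recovered. The gates were low and high (top ~1%), set on anti-HA fluorescence for expression and streptavidin fluorescence for reagent binding. Before sorting, galactose-induced (36–48 hours) yeast display cells were stained for 1 hour at 4 °C with 10% biotinylated, detergent-solubilized Sf9 membrane reagent.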
row,Sequence,polyreactivity (PSR sort gate)
1,QVQLVESGGGLVQAGGSVRLSCAASGFIFYDYVMGWYRQAPGKERELVAAISASGGSTYYADSVKGRFTISRDYAKNTVYLQMNSLKPEDTAVYYCAAPRYYYYWRDYWGQGTQVTVSS,high polyreactivity
2,QVQLVESGGGLVQAGGSLRLSCAASGSTFKRYAKGWYRQAPGKERELVAAITLSGGNTYYADSVKGRFTISRDNAKNTVYLQMNSLKPEDTAVYYCAARRYRGYDYWGQGTQVTVSS,high polyreactivity
3,QVQLVESGGGLVQAGGSLRLSCAASGSTFSDNAMGWYRQAPGKERELVAANTSGGSTYYADSVKGRFTISRDNAKNTVYLQMNSLKPEDTAVYYCAADYWGQGTQVTVSS,low polyreactivity
4,QVQLVESGGGLVQAGGSLRLSCAASGFIFYWYAMGWYRQAPWKEREFVAAISSSGGNTSYADSVKGRFTISRDNAKNTVYLQMNSLKPEVTAVYYCAATSRAFYRSLYYYWGQGTQVTVSS,low polyreactivity
5,QVQLVESVGGLVQAGGSLRLSCAASGLILRFYAMVWYRQAPGKERELVAAISRNGGSTYYADSVKGRFTISRDNAKNTVYLQMNSLKPEDTAVYYCAVEYYVSWKLDYWGQGTQVTVSS,high polyreactivity
6,QVQLVESGGGLVQAGGSLRLSCAASGRTFRVYAMGWYRQAPGKEREFVAAITDSGGRTYYADSVKGRFTISRDNAKNTVYLQMNSLKPEDTAVYYCNAYQYYERYDTYLFRYDYWGQGTQVTVSS,low polyreactivity
7,QVQLVESGGGLVQAGGSLRLSCAASGRIFIYYAMGWYRQAPGKERELVAAITSGGSTIYADSVKGRFTIPRDNAKNTVYLQMNSLKPEDTAVYDCAARYVRSQTRFDYWGQGTQVTVSS,high polyreactivity
8,QVHLVESGGGLVKAGGSLRISCAASGRTSVLYAMGWYRQAPGKDREFVAAITWNSGSTYYADSVKGRFTISRDNAKHTVYLQMNCLKPEDTAVYYCAADVYYEYDYWGQGTQVTVSS,low polyreactivity
9,QVQLVESGGGLVQAGGSLRLSCAASGSTSTQYAMGWYRQAPGKERELVAGITQSGGSTYYADSVKGRFTISRDNAKNTVYLQMNSLKPEDTAVYYCAAPPGYTGRYDYYYWGQGTQVTVSS,high polyreactivity
10,QVQLVESGGGLVQAGGSLRLSCAASGIFTYTMGWYRQAPGKERELVAAITNGSTYYADSVKGRFTISRDNAKNTVYLQMNSLKPEDTAVYYCAADRSSAYRWRSAGYYKYDYWGQGTQVTVSS,low polyreactivity
11,QVQLVESGGGLVQAGGSLRLSCAASGITFYVYTMGWDRQAPGKERELVAAITWSGGSTYYADSVKGRFTISRDNAKNTVYLQMKSLKPEDTAVYYCNRVGYWVGLDSWGQGTQVTVSS,high polyreactivity
12,QVQLVESGGGLVQAGGSLRLSCAASGLIFSYYVMGWYRQAHGKERELVAAISRRGGSTYYADSVKGRFTISRDNAKNTVYLQMNSLKPEDTAVYYCNAQRNFKSITEYDYWGQGTQVTVSS,high polyreactivity
13,QVQLVESGGGLVQAGGSLRLSCAASGLTFYRYAMGWYRQARGKERELVAAISRRGGRTYSADSVKGRFTISRDNAKTTVYLQMNSLKPEDTAVYYCAAVTRDYRNDRRRQRYYYWGQGTQETVSS,high polyreactivity
14,QVQRVDSGGGLVQAGGSLRLSCAASGITLLRYTMGWYRQAPGKERELLASITKRGGSTYYADSVKGRFTISRDNAKNTVYLQMNSLKPEDTAVYYCNADRHNSYYRKWDQLDMDYWGQGTQVTVSS,high polyreactivity
15,QVQLVESGGGLVQAGGSLRLSCAASGSTFLGNAMGWYRQAPGKERELVATITGSSGSTYYADSVKGRFTISRDNAKNTVYLQMNSLKPEDTAVYYCNTVYNYWDGYDYWGQGTQVTVSS,low polyreactivity
16,QVQLVESGGGLVQAGGSLRLSCAASGSIFYRNALGWYRQAPGKERELVAAISSDGSTNYADSVKGRFTISRDNAKNTVYLQLNSLKPEDTAVYYCAAPWTQILDYWGQGTQVTVSS,low polyreactivity

row,Sequence,polyreactivity (PSR sort gate)
1,QVQLVESGGGLVQAGGSLRLSCAASGFLFRYYARGWYRQAPGKERELVADISQNGDSTYYADSVKGRFTISRDTAKITVYLQMNCLNPDDTAVYYCNADNDPWPYFDGIFSVDMDYWGQGTQVTVSS,low polyreactivity
2,QVQLVESGGGLVQAGGSLRLSCAASGRTFKTYVMGWYRQAPGKERELVAGITSGGGSTYYADSVKGRFTISRDNAKITVYLQMNSLKPEDTAVYYCAAVSKDGFWVSYYYWGQGTQVTVSS,high polyreactivity
3,QVQLVESGGGLVQAGGSLRLSCAASGFIFYNYDMGWYRQAPGKERELVAAITGGGSTNYADSVKGRFTISRDNAKNTVYLKMNSLKPEDTAVYYCAAEEGPPCYRYDYWGQGTQVTVSS,low polyreactivity
4,QDQLVESGGGLVQAGGSLRLSCAASGINFKYYAMGWYRQAPGKERELVAAISRSGSSTYYADSVKGRFTISRDNAKNTVYLQMNSLIPEDTSVYYCADQPYDSNYGNSGYWGQGTQVTVSS,high polyreactivity
5,QVQLVESGGGLVQAGGSLRLSCAASGFTFGGNARGWYRQAPGKERELVAAIRRGGSTNYADSVKGRFTISRDNAKNTVYLQMNSLKPEDTAVYYCARDYRSYTGSYDTSYDYWGQGTQVTVSS,high polyreactivity
6,QVQLVESGGGLVQAGGSLRLSCAASGIIFQNYAMGWYRPAPGKERELVAVISNTGSTNYADSVKGRFTISRDNAKNTVYLQMNSLKPEDTAVYYCAAEFRVVDWLWFDYWGQGTQVTVSS,high polyreactivity
7,QVQLQESGGGLVQAGGSLRLSCAASGPISRRSTMGWYRQAPGKERELVTAITRGTNTNYADSVKGRFTISRDNAKNTEYLQMNSLKPEDTAVFYCAAYGVLKPSRGDAVFHRYWGQGTQVTVSS,low polyreactivity
8,QVQLVESGGCLVQAGGSLRLSGAASGYTFFFNVMGWYRPAPGKERQMVAAISYSGGSTNYADSVKGRFTISRDNAKITVYLQINSLKPEDTAVYYCNARSVSRNGYQDDYWGQGTQVTVSS,low polyreactivity
9,QVQLVESGGGLVQAGGSLRLSCAASGFTFRIYAMGWYRQAPGKERELVAAITSVGSTYYADSVKGRFTISRDNAKNTVYLQMNRLKPEDTAVYYCNARATYYRFRYPYGYWGQGTQVTVSS,high polyreactivity
10,QVQLVESGGGLVQAGGSLRLSCAASGSTFIVYAMGWYRQAPGKERELVASITWRGGSTYYADSVKGRFTISRDNAKNTVYFQMNSLKPEDTAVYYCARGYETTNYQKFYITDDGDYWGQGTQVTVSS,low polyreactivity
11,QVQLVESVGGLVQAGGSLRLSCAASGITFRWNAMGRYRQATGKERELVAAIRRSGRTYYADSVKGRFTISRDNAKNTVYLQMNSLKPEDTAVYYCAAVSGYRSSKYDYWGQGTQVTVSS,high polyreactivity
12,QVQLVESGGGLVQAGGSLRLSCAASGSIFHYNAMGWYRQAPGKERELVARISVNGGRTYYADSVKGRFTISRDNAKNTDYLQMNSLKPEDTAVYYCAVEGVWRSFFYGYDSWGQGTQVTVSS,low polyreactivity
13,QVQLVESGGALVQAGGSLRVSCAASGRIFRRNAMGWDRPAPGKERELVAGIDRSGGSTYYADSVKRRFTISRDNGKKTVYIQMNSLKPEDTAVYYCNTRAPYRVKSSGYWGLGTQVTVSS,high polyreactivity
14,QVQLVESGGGLVQAGGSLRLSCAASGRIFRFYAMGWSRQAPGKEREMVAVISTGGRTNYADSVKGRFTISRDNGKNTVYLQMNSLKPVDSAVYYCAAEYTNIGRYDGWNYNYWGQGTQVTVSS,high polyreactivity
15,QVQLVESGGGLVQAGGSLRLSCAASGFTFRRYAMGWYRQAPGKERVLVAAITRGSSTYYADSVKGRFTISRDNEKNTVYLQMNSLKPEDTAVYYCAAAGFWSRPSDYWGQGTQVTVSS,low polyreactivity
